In patent US20170066829A1 (published 2017):

Biological target: HER2 molecule (antigen of the affinity ELISA of FIG. 4) (UniProt P04626 23-652, limits assumed)
Assay: ELISA with dilutions of HRP-conjugated Hersintuzumab, sigmoidal OD 450 nm curves

B1: Hersintuzumab (antibody, V domains shown)
VH: EVKLVESGGGLVKPGGSLRLSCATSGFSFSSYYMYWVRQAPGKRLEWVAYISSGSEIYYSDSVKGRFTISRDSAKNTLYLQMNSLRAEDTAVYYCARLGDDGMDVWGQGTTVTVSS
VL: DIVMTQSPSSLSASVGDRVTITCRASQNVRTAVAWFQQKPGKAPKALIYLASNRHTGVPDRFTGSGSGTEFTLTISNLQPEDFATYFCLQHNSYPLTFGGGTKVEIK
notes: also called humanized anti-HER2 antibody; humanized monoclonal anti-HER2 antibody
Ka: 6e+08 M⁻¹
